# Measurements published in article PMC3069011 (Molecular Biology of the Cell, 2011).
# T1: GST-Nup88 (human, UniProt Q99567 1-741)
# T1 sequence (looked up): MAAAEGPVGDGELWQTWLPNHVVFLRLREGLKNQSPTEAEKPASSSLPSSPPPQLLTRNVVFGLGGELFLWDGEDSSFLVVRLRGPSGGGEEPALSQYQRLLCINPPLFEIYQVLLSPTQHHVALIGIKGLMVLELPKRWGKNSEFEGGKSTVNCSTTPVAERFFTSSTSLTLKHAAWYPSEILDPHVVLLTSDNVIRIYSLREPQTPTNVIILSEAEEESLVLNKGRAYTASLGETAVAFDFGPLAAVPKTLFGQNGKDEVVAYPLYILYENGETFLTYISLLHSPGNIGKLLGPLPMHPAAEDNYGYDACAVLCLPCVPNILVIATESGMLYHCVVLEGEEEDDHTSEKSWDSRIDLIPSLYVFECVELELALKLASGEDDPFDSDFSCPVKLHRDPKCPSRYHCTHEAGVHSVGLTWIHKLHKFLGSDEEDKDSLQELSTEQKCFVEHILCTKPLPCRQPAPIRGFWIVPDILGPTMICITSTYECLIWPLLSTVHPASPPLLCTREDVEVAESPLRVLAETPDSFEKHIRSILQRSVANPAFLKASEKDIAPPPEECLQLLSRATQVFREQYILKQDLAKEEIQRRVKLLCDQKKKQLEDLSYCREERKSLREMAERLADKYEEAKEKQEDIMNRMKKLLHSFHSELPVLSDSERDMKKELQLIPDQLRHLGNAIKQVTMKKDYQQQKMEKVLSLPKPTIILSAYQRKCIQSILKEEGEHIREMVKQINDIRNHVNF
# B1: lamin A tail (residues 243-664), bacterially expressed and purified (domain or fragment, human, UniProt P02545 243-664, looked up)
# chain: DALQELRAQHEDQVEQYKKELEKTYSAKLDNARQSAERNSNLVGAAHEELQQSRIRIDSLSAQLSQLQKQLAAKEAKLRDLEDSLARERDTSRRLLAEKEREMAEMRARMQQQLDEYQELLDIKLALDMEIHAYRKLLEGEEERLRLSPSPTSQRSRGRASSHSSQTQGGGSVTKKRKLESTESRSSFSQHARTSGRVAVEEVDEEGKFVRLRNKSNEDQSMGNWQIKRQNGDDPLLTYRFPPKFTLKAGQVVTIWAAGAGATHSPPTDLVWKAQNTWGCGNSLRTALINSTGEEVAMRKLVRSVTVVEDDEDEDGDDLLHHHHGSHCSSSGDPAEYNLRSRTVLCGTCGQPADKASASGSGAQVGGPISSGSSASSVTVTRSYRSVGGSGGGSFGDNLVTRSYLLGNSSPRTQSPQNCSIM
# Biological target: T1, GST-Nup88
# Experiment: far-Western, overlay or dot blot
binder,measurement,value
B1,binding result,binds
